Results taken from IntAct's records for PubMed 17891150.

What follows are substances tested against TNRC6B, Q9UPQ9-2.
Sequence of TNRC6B, Q9UPQ9-2 (Q9UPQ9 other isoform, or with tags, fused parts or gaps): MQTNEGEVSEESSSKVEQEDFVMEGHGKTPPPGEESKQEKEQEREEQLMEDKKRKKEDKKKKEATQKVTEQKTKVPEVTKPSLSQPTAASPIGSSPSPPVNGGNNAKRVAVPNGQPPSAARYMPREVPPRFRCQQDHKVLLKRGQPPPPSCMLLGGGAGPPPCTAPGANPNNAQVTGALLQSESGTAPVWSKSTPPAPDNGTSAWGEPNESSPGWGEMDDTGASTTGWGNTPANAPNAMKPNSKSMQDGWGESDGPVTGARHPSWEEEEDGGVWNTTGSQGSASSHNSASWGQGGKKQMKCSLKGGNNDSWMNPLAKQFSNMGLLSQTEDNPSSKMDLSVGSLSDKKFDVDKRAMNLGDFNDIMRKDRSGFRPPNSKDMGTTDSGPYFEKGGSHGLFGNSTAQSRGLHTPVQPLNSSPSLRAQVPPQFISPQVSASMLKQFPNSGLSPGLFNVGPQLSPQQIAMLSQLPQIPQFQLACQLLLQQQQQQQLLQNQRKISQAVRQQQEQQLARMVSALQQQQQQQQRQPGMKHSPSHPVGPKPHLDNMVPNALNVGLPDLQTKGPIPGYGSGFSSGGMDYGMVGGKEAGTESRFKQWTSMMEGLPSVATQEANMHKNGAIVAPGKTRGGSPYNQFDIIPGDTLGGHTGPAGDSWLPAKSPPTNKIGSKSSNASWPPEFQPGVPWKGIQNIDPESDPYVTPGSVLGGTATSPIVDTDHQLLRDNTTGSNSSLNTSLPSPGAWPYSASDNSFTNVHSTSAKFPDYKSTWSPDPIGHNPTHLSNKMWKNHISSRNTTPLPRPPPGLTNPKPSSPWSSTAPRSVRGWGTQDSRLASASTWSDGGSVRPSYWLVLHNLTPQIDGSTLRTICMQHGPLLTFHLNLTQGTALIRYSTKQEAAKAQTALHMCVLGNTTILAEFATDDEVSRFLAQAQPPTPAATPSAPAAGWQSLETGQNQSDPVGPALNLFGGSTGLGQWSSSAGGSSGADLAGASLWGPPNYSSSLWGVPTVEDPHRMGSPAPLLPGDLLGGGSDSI

Sequence of Protein argonaute-2 (Homo sapiens), Q9UKV8 V615A (Q9UKV8 whole entry V615A): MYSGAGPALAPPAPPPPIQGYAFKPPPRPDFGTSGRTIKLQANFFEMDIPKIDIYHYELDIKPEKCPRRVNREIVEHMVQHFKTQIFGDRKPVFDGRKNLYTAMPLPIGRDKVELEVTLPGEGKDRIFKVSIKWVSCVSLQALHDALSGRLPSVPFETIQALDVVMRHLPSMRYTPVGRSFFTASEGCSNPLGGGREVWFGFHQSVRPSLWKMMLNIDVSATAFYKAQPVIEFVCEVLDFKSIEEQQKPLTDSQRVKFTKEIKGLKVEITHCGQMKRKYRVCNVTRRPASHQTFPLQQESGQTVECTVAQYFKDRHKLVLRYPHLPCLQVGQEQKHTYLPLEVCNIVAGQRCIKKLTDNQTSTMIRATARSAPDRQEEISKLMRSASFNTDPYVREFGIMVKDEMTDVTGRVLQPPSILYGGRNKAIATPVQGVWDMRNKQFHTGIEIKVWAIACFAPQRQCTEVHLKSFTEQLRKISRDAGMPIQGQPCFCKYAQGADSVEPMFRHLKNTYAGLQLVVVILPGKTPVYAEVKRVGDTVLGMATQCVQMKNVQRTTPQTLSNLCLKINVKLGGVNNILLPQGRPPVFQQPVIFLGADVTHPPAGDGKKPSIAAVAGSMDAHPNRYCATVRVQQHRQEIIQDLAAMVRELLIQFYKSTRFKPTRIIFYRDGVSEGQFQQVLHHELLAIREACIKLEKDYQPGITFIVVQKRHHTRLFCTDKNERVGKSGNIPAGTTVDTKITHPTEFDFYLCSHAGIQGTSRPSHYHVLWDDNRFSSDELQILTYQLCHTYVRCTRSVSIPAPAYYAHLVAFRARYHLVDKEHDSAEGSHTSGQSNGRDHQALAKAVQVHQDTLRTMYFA
Sequence of Protein argonaute-2 (Homo sapiens), Q9UKV8 Q545A (Q9UKV8 whole entry Q545A): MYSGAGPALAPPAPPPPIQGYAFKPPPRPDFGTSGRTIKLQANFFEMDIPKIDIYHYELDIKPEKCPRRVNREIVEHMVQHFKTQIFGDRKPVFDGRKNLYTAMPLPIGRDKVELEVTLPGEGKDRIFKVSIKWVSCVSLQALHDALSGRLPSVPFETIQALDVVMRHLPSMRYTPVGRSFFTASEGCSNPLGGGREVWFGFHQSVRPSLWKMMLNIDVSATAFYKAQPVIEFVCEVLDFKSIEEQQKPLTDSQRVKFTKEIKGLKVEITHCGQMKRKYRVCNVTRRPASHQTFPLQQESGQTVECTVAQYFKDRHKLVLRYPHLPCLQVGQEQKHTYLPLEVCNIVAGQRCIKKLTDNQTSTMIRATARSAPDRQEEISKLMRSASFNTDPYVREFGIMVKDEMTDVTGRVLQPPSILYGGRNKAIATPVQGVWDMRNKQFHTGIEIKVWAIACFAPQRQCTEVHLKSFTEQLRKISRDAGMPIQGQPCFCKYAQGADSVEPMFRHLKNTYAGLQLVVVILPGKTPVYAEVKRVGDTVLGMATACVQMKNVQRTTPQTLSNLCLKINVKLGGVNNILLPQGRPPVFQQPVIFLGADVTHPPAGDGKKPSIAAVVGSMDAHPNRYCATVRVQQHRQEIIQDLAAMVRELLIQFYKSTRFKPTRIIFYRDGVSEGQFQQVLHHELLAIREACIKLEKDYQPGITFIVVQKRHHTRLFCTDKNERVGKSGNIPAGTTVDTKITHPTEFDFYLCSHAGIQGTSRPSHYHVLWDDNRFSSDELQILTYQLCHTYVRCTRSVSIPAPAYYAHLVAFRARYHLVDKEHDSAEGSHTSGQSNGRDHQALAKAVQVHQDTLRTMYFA
Sequence of Protein argonaute-2 (Homo sapiens), Q9UKV8 V797A (Q9UKV8 whole entry V797A): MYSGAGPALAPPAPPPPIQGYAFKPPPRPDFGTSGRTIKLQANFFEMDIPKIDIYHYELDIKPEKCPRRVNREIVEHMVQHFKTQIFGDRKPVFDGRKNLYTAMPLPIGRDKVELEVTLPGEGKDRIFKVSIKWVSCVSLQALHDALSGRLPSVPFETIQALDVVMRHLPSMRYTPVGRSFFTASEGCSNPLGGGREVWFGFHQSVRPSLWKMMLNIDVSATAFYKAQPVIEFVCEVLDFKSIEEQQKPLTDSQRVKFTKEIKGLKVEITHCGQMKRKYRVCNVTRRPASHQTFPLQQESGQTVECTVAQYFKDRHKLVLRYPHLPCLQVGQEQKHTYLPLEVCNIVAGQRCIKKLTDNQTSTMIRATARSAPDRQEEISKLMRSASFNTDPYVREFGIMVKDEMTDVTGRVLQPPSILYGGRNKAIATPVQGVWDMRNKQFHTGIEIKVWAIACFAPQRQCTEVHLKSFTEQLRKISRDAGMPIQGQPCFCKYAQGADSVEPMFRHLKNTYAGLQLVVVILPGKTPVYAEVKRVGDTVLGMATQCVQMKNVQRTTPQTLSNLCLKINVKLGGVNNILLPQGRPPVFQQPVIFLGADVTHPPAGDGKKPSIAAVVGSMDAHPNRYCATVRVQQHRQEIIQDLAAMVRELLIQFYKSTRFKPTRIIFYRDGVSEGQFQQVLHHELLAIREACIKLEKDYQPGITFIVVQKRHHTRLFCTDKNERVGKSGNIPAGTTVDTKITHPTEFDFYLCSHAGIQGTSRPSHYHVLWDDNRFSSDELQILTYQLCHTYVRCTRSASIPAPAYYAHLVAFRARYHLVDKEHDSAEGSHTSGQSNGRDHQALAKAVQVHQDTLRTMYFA
Sequence of Protein argonaute-2 (Homo sapiens), Q9UKV8 I592A (Q9UKV8 whole entry I592A): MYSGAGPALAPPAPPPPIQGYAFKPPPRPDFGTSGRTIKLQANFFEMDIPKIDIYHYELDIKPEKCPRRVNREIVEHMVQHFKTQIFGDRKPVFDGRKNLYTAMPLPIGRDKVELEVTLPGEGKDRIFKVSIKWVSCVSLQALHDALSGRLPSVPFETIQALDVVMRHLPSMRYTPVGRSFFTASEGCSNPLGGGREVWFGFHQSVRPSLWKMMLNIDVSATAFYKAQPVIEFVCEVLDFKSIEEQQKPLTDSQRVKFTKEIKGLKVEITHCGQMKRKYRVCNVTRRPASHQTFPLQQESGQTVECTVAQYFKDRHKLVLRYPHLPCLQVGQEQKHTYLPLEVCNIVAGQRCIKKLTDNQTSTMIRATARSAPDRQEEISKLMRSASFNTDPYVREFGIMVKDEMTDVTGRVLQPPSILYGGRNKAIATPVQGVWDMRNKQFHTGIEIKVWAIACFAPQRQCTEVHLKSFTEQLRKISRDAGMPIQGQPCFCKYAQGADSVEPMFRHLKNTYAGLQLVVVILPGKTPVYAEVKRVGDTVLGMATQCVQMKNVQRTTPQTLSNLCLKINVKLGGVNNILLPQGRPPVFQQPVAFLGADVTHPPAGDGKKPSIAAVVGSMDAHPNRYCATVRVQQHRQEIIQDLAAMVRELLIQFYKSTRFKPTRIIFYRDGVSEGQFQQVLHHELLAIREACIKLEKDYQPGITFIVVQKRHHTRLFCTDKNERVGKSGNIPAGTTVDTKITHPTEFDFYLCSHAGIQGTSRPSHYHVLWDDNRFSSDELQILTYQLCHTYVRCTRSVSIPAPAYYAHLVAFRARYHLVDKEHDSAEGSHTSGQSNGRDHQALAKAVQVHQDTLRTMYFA

Row | effect of a mutation on the interaction | Substance
1 | decreasing interaction | Protein argonaute-2 (Homo sapiens), Q9UKV8 Y784A
2 | decreasing interaction | Protein argonaute-2 (Homo sapiens), Q9UKV8 Y749A
3 | decreasing interaction | Protein argonaute-2 (Homo sapiens), Q9UKV8 F587A
4 | disrupting interaction | Protein argonaute-2 (Homo sapiens), Q9UKV8 R583A
5 | disrupting interaction | Protein argonaute-2 (Homo sapiens), Q9UKV8 F653A
6 | disrupting interaction | Protein argonaute-2 (Homo sapiens), Q9UKV8 Y625A
7 | disrupting interaction | Protein argonaute-2 (Homo sapiens), Q9UKV8 I592A
8 | disrupting interaction | Protein argonaute-2 (Homo sapiens), Q9UKV8 Y529A
9 | decreasing interaction | Protein argonaute-2 (Homo sapiens), Q9UKV8 F858A
10 | decreasing interaction | Protein argonaute-2 (Homo sapiens), Q9UKV8 V615A
11 | disrupting interaction | Protein argonaute-2 (Homo sapiens), Q9UKV8 R812A
12 | disrupting interaction | Protein argonaute-2 (Homo sapiens), Q9UKV8 R647A
13 | disrupting interaction | Protein argonaute-2 (Homo sapiens), Q9UKV8 V797A
14 | disrupting interaction | Protein argonaute-2 (Homo sapiens), Q9UKV8 K533A
15 | decreasing interaction | Protein argonaute-2 (Homo sapiens), Q9UKV8 Y805A
16 | disrupting interaction strength | Protein argonaute-2 (Homo sapiens), Q9UKV8 Q545A
